The results in this text go back to patent publication US20240002500A1 (GUANGDONG FAPON BIOPHARMA, published 2024).

Experiment [1] deals with T1, full-length cynoTIGIT on CHO cells (monkey (cyno), UniProt A0A7N9I9V4 89-312).
T1 construct: whole, on cells; also called CHO-cynoTIGIT; monkey TIGIT
The experiment in a line: FACS titration on CHO-cynoTIGIT cells, PE goat anti-mouse IgG. The protocol: In order to verify that the anti-human TIGIT antibody binds to a monkey TIGIT, the following experiments were specifically performed. The CHO-engineered cell CHO-cynoTIGIT cells recombinantly expressing full-length […] cynoTIGIT were counted; centrifugated at 300 g for 5 min; resuspended with an FCM buffer; and cell density was adjusted to 4E+06 cell/mL for later use.
Samples to be detected (including a positive control antibody and a mouse monoclonal antibody) were diluted with the FCM buffer to 20 μg/mL, and then the FCM buffer was used to perform 3× serial dilutions of 12 concentration points; and an isotype control antibody was diluted with the FCM buffer to 20 μg/mL. According to an experimental design, in each well, 50 μL of the antibody and 50 μL of the cell (the volume of each cell added into a 96-well V-shaped plate being 2E+05 cell/well) were respectively added in the 96-well V-shaped plate; and incubation was performed in dark on ice for 30 min. Centrifugation (300 g/5 min) was performed; supernatant was discarded; 200 μL of the FCM buffer was added for washing once; centrifugation (300 g/5 min) was performed; and the supernatant was discarded. […] Centrifugation (300 g/5 min) was performed; supernatant was discarded; 200 μL of the FCM buffer was added for washing once; centrifugation (300 g/5 min) was performed; and the supernatant was discarded. 100 μL of the 1×PBS was added for resuspending, and on-machine detection was performed.

In experiment [2] the target is T2, full-length human TIGIT on cells (human, UniProt Q495A1 22-244).
T2 construct: whole, on cells; The same protein is used for CHO-hTIGIT, PBMC and NK92-hTIGIT; the cells are named under assay; also called CHO-hTIGIT; hTIGIT
T2 sequence (looked up): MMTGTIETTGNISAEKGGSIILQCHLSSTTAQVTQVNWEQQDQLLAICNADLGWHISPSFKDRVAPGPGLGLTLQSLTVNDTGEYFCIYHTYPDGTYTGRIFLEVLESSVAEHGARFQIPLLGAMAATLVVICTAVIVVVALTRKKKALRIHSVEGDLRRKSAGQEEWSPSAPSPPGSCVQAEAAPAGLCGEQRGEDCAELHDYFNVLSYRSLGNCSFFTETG
The experiment in a line: FACS titration on CHO-hTIGIT cells; span of the fitted curve, unit from the y axis. The protocol:
The CHO-engineered cells CHO-hTIGIT cells recombinantly expressing full-length human TIGIT to be detected were counted, centrifuged at 300 g for 5 min, resuspended in an FCM buffer and cell density was adjusted to 4E+06 cell/mL for later use. A sample to be detected (including a positive control antibody and a mouse monoclonal antibody) was diluted with the FCM buffer to 20 μg/mL, and then the FCM buffer was used to perform 3× serial dilutions of 12 concentration points; and the isotype control antibody was diluted with the FCM buffer to 20 μg/mL. According to an experimental design, in each well, 50 μL of the antibody and 50 μL of the cell (the amount of each cell added into a 96-well V-shaped plate being 2E+05 cells/well) were respectively added in the 96-well V-shaped plate; and incubation in dark was performed on ice for 30 min. Centrifugation (300 g/5 min) was performed; supernatant was discarded; 200 μL of the FCM buffer was added for washing once; centrifugation (300 g/5 min) was performed; and the supernatant was discarded. […] Centrifugation (300 g/5 min) was performed; supernatant was discarded; 200 μL of the FCM buffer was added once for washing once; centrifugation (300 g/5 min) was performed; and the supernatant was discarded. 100 μL of the 1×PBS was added for resuspending, and on-machine detection was performed.

Experiment [3] deals with T2, full-length human TIGIT on cells. The experiment in a line: FACS titration on PBMC of healthy people (natural TIGIT); table under the plot, unit taken from the x axis Log[µg/mL]. How it is done: In order to verify that the prepared anti-human TIGIT antibody may effectively bind to naturally expressed TIGIT, the following experiments were specifically performed. PBMC cells in healthy people to be detected were counted, centrifuged at 300 g for 5 min, resuspended with an FCM buffer; and cell density was adjusted to 4E+06 cell/mL for later use. Samples to be detected (including a positive control antibody and a mouse monoclonal antibody) were diluted with the FCM buffer to 20 μg/mL, and then the FCM buffer was used to perform 3× serial dilutions of 12 concentration points; and the isotype control antibody was diluted with the FCM buffer to 20 μg/mL. According to an experimental design, in each well, 50 μL of the antibody and 50 μL of the cell (the volume of each cell added into a 96-well V-shaped plate being 2E+05 cell/well) were respectively added in the 96-well V-shaped plate; and incubation was performed in dark on ice for 30 min. Centrifugation (300 g/5 min) was performed; supernatant was discarded; 200 μL of the FCM buffer was added for washing once; centrifugation (300 g/5 min) was performed; and the supernatant was discarded. […] Centrifugation (300 g/5 min) was performed; supernatant was discarded; 200 μL of the FCM buffer was added for washing once; centrifugation (300 g/5 min) was performed; and the supernatant was discarded. […]

T1 sequence (A0A7N9I9V4 entry or part of it): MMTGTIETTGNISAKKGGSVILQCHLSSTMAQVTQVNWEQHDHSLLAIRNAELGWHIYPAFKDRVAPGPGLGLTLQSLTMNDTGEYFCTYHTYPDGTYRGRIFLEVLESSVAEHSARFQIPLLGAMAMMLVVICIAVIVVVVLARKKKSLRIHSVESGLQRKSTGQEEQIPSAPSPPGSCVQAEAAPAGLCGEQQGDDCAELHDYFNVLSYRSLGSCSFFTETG

B1: 3Tigit-12 mouse monoclonal antibody (antibody, V domains shown)
VH: QVQLQQSGAELVRPGTSVKMSCKAAGYTFTNYWIGWVKQRPGHGLEWIGDIYPGGGYTNYDEKFKGKATLTADTSSRTAYMQLSSLTSEDSAIYHCVNGGYGSTYGYFDVWGAGTTVTVSS
VL: DIVMSQSPSSLPVSVGEKVTMSCKSSQSLLFSSDQKNYLAWYQQKPGQSPKLLIYWASTRESGVPDRLTGSGSGTDFTLTISSVKAEDLAVYYCQQYHKYPFTFGGGTKLEIKR
notes: Mouse monoclonal antibody from hybridoma
As a reminder, the EC50 is the concentration that produces a half-maximal response. On to B1, for which it took 0.354 nM to reach a half-maximal effect in experiment [1] (EC50).

B2: Tigit-5 mouse monoclonal antibody (antibody, V domains shown)
VH: QVQLQQPGAELVRPGASVKLSCKASGYSFTSYWMNWVKQRPGQGLEWIGMIRPSDSETRLNQMFKDKATLTVDKSSSTAYMQLSSPTSDDSAVYYCAGIHDYGHGAYWGQGTLVTVSA
VL: DIQMIQSPASLSVSVGETVTITCRASENIYSNLAWYQQKQGKSPQLLVYAASHLPDGVPSRFSGSGSGTQYSLKINSLQSEDFGSYYCQHFWGTPRTFGGGTKLEIKR
notes: as for B1
B2 had an EC50 in experiment [1] of 0.426 nM. Also, the Span in experiment [2] is 21000 MFI-PE.

B3: 3Tigit-16 mouse monoclonal antibody (antibody, V domains shown)
VH: EVQLQQSGPELVKPGASVKMSCKASGFTFTDYFMDWVKQSRGASFEWIGRLNPNNGRTSYNQKFKGKATLTVDKSSSTAYMELNSLTSEDSAVYYCARGDLGRWYFDVWGAGTTVTVSS
VL: QIVLTQSPAIMSASPGEKVTMTCSASSSVSYMHWYQQKSGTSPKRWIYDTSKLASGVPTRFSGSGSGTSYSLTISSMEAEDAASYFCQQWSSNSLTFGAGTKLELKR
notes: as for B1
B3: the EC50 in experiment [1] came out at 0.758 nM; in experiment [3], 0.0247 µg/mL. Also, the Span in experiment [2] is 34600 MFI-PE.

B4: 3Tigit-29 mouse monoclonal antibody (antibody, V domains shown)
VH: EVQLQQSGPELVKPGASVKISCKASGYTFTDYNMHWVKQSLGKSLEWIGYVNSFNGNTGYSQKFKSKVTLTVDRSSRTAYMDLRSLTSEDSAVFYCARSSRGGFAYWGQGTLVTVSA
VL: QIVLTQSPAIMSASPGEKVTMTCSASSSVSYMHWYQQKSGTSPKRWIYDTSKLASGVPARFSGSVSGTSYSLTISSMEAEDAATYYCQQWSSNSLTFGAGTKLELKR
notes: as for B1
With B4, the values for the EC50 in experiment [1] and in experiment [3] were 0.506 nM and 0.0217 µg/mL, respectively. The Span in experiment [2] came to 30600 MFI-PE.
